This data set can be described thus: protein stability index of a GFP-peptide fusion (GPS, HEK-293T) (PSI 1-6); higher = more stable.
The mark [1] stands for this setting: treatment: DMSO, c terminus: a fixed tail appended.
The mark [2] stands for this setting: treatment: MLN4924 1 uM, 8 h, c terminus: a fixed tail appended.

The source of these data is the supplement of paper PMC10567573.

± gives the standard deviation.
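Further: 24-mer peptide tiles fused after GFP, lentivirally expressed, FACS-sorted into six equal bins by GFP/DsRed ratio, decoded by Illumina sequencing, PSI is the read-weighted mean bin number.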

EPHKCPECGKRFLRSSDLYRHQRL [ZNF449] displayed a protein stability index under setting [1] of 3.96 ± 0.36 and a protein stability index under setting [2] of 4.39 ± 0.47.

For the sequence HRRFCELLPQEQRSVESSLRAQVP [CIB1], the protein stability index runs as follows: under setting [1], 3.63 ± 0.13; under setting [2], 3.66 ± 0.15.

GARQISYSIPEELEKGSFVGNISK [PCDHGA10]: the protein stability index was determined as 4.13 ± 0.19 under setting [1] and 4.23 ± 0.17 under setting [2].

As to YSHEVSLTADSRKSHLIFPQPNYA [PCDHGA10], the protein stability index is, setting by setting: under setting [1], 2.79 ± 0.48; under setting [2], 2.74 ± 0.29.

On to RPDKALSEGDLKNAIRVHHALATR [PSD2], for which the protein stability index is, setting by setting: under setting [1], 4.07 ± 0.1; under setting [2], 4.31 ± 0.3.

For the sequence QVLEMKNQQIHEQEKKILELEKLA [MTUS2], the protein stability index reads like this: under setting [1], 4.68 ± 0.31; under setting [2], 4.62 ± 0.45.

On to LRQHGPPNIVVAIAGNKCDLIDVR [RAB22A], for which the protein stability index reads like this: under setting [1], 2.46 ± 0.39; under setting [2], 2.4 ± 0.52.

With LLQLSDACRFQEDQEMARDLVERA [TCF25], the protein stability index was 3.64 ± 0.34 under setting [1] and 3.77 ± 0.52 under setting [2].

For the sequence AAQNGDESSTRLLLEKNASVNEVD [RIPK4], the protein stability index runs as follows: under setting [1], 5.37 ± 0.24; under setting [2], 5.48 ± 0.27.

Turning to PSNFLEIDVSNPQTVGVGRGRFTT [SNX3], the protein stability index is, setting by setting: under setting [1], 3.84 ± 0.29; under setting [2], 3.8 ± 0.59.

Turning to KLPSRRQPGLLHLQSCGDLHTFTP [FAM189A2], the protein stability index amounted to 4.92 ± 0.19 under setting [1] and 4.94 ± 0.15 under setting [2].

For GPDDSLWDKHACPAYVGPEILSSR [TRIB3], the protein stability index by setting is: under setting [1], 3.56 ± 0.25; under setting [2], 3.54 ± 0.33.

On to MLGFRPYRFYFYMWKFVSPLCMAV [SLC6A17], for which the protein stability index under setting [1] amounted to 2.27 ± 0.25 and the protein stability index under setting [2] is 2.29 ± 0.68.

Take QPPTTTVARSGTPAVENKQQIGDA [PLK2]: the protein stability index runs as follows: under setting [1], 5.4 ± 0.16; under setting [2], 5.37 ± 0.37.

In the case of ESTRELGELLGEARYYLVQGLIED [KCTD13], the protein stability index under setting [1] was determined as 2.88 ± 0.19 and the protein stability index under setting [2] is 2.91 ± 0.31.

On to SSHFLEQTLDKKLMSDLRRKRTAH [INTS4], for which the protein stability index is, setting by setting: under setting [1], 4.06 ± 0.23; under setting [2], 4.14 ± 0.17.

For the sequence LFLGIHVFLVSCALPDSVLRRFVV [AUP1], the protein stability index runs as follows: under setting [1], 3.03 ± 0.52; under setting [2], 2.97 ± 0.63.

On to TVANDVMLRTGLGVIRMWADEGSR [NETO1], for which the protein stability index under setting [1] worked out at 2.61 ± 0.11 and the protein stability index under setting [2] is 2.77 ± 0.21.

Regarding LDFLQEVTRQPRNLQDLCRIKIRQ [ASB7], the protein stability index is, setting by setting: under setting [1], 3.35 ± 0.16; under setting [2], 3.57 ± 0.3.

On to HAFPVVTENRGNEKEFMKGNQLIS [CLCN6], for which the protein stability index under setting [1] stood at 4.08 ± 0.078 and the protein stability index under setting [2] was determined as 4.12 ± 0.067.

Take ESYPEDTVFYIPEDHKPGTFPKAL [DLC1]: the protein stability index is, setting by setting: under setting [1], 4.13 ± 0.31; under setting [2], 4.22 ± 0.21.

Consider SVMFRKWRDSKGKDKEYAEIIRKQ [UBE2R2], for which the protein stability index under setting [1] was found to be 2.98 ± 0.28 and the protein stability index under setting [2] was 2.99 ± 0.18.

As for QNRRAKLKRSHRESQFLMAKKNFN [HESX1], the protein stability index worked out at 3.43 ± 0.24 under setting [1] and 3.48 ± 0.43 under setting [2].

For the sequence LVGAQAPATEEQEAASSSSTLVEV [MAGEA3], the protein stability index reads like this: under setting [1], 5.43 ± 0.21; under setting [2], 5.3 ± 0.097.

Take NEGLMKWENRHEGVFKFLRSEAVA [ELF3]: the protein stability index under setting [1] worked out at 3.01 ± 0.11 and the protein stability index under setting [2] came to 3.09 ± 0.22.

Take QLAAGRHGDDLKNTKNEISELTRL [KRT71]: the protein stability index under setting [1] was 4.58 ± 0.32 and the protein stability index under setting [2] is 4.52 ± 0.15.

Regarding QNLYFNCSSPGVQACSLPASCCID [TSPAN10], the protein stability index under setting [1] turned out to be 3.12 ± 0.22 and the protein stability index under setting [2] was 3.25 ± 0.2.

AEQEALTGECKELEKKNEALKERA [ATF4] came in with a protein stability index under setting [1] of 5.3 ± 0.28 and a protein stability index under setting [2] of 5.28 ± 0.27.

As to PPHRRRLLFACSPPPASQPVVKAL [CDC25A], the protein stability index was 2.64 ± 0.22 under setting [1] and 2.98 ± 0.1 under setting [2].

Turning to TVKLLVEEKADVLARGPLNQTALH [RIPK4], the protein stability index stood at 3.35 ± 0.58 under setting [1] and 3.4 ± 0.37 under setting [2].

With KVEVDMEKIAAEIAQAEEQARKRQ [SMARCE1], the protein stability index is, setting by setting: under setting [1], 4.99 ± 0.27; under setting [2], 4.78 ± 0.37.

In turn, LPSRPPPLLSPLLASRNPCPWHYL [RSPH3] had a protein stability index under setting [1] of 2.27 ± 0.2 and a protein stability index under setting [2] of 2.15 ± 0.22.

For the sequence EVQDLLEGCELPDLPSSLLLPEDM [SMG5], the protein stability index by setting is: under setting [1], 4.5 ± 0.13; under setting [2], 4.67 ± 0.2.

For SMFSRVGGIIAPFIPSLKYVQWSL [SLC22A15], the protein stability index is, setting by setting: under setting [1], 2.54 ± 0.41; under setting [2], 2.5 ± 0.65.

For RAVIAWMEKIPFVLGGNLQGGELV [CPXM2], the protein stability index under setting [2] was determined as 2.36 ± 0.63.

HCNLFVYSSSKGSLRLCDMRAAAL [PPP2R2C]: the protein stability index worked out at 2.6 ± 0.69 under setting [1] and 2.63 ± 0.35 under setting [2].

With MEVPQPEPAPGSALSPAGVCGGAQ [CDC25B], the protein stability index under setting [1] came to 5.25 ± 0.34 and the protein stability index under setting [2] is 5.23 ± 0.33.

QAQGARAGGSARRPDTGDDAAGHG [GMCL1]: the protein stability index was determined as 5.41 ± 0.4 under setting [1] and 5.57 ± 0.35 under setting [2].

As for ISYLVLSMISMGLFSIAPLIYGSM [JAGN1], the protein stability index was found to be 2.91 ± 0.46 under setting [1] and 3.19 ± 0.17 under setting [2].

On to DVAEGYRKLSLKGHNDWVMDVAIS [WDR88], for which the protein stability index by setting is: under setting [1], 2.47 ± 0.31; under setting [2], 2.69 ± 0.5.

Consider AKLGTQAEKDRRLKKKHQLLEDAR [PPFIA4], for which the protein stability index was 4.26 ± 0.37 under setting [1] and 4.44 ± 0.1 under setting [2].

For the sequence VQAPSYGARPVSSAASVYAGAGGS [KRT18], the protein stability index amounted to 3.91 ± 0.081 under setting [1] and 3.82 ± 0.69 under setting [2].

As for VCGHTLCESCVDLLFVRGAGNCPE [MNAT1], the protein stability index under setting [1] is 2.64 ± 0.42 and the protein stability index under setting [2] is 2.87 ± 0.53.

As to EEKIQVLQQQNEDLKARIDQNTVV [MTUS2], the protein stability index runs as follows: under setting [1], 5.28 ± 0.24; under setting [2], 5.28 ± 0.069.

Consider RSQKHKERIRLLRQKREAAARKKY [C18orf25], for which the protein stability index is, setting by setting: under setting [1], 4.17 ± 0.34; under setting [2], 4.36 ± 0.31.

The sequence ASDYFKAMFTGGMKEQDLMCIKLH [KLHL13] came in with a protein stability index under setting [1] of 2.13 ± 0.17 and a protein stability index under setting [2] of 2.13 ± 0.25.

DQEAVCLICAISHTHRAHTVVPLD [TRIM39]: the protein stability index was 2.22 ± 0.21 under setting [1] and 2.19 ± 0.35 under setting [2].

Regarding RERNMAPDLRQDFNMMEQKKRVSM [ADD1], the protein stability index under setting [1] is 4.53 ± 0.11 and the protein stability index under setting [2] stood at 4.5 ± 0.092.

Take SPVRCGGPGDASPRGCGARRAGEG [WEE1]: the protein stability index was 4.54 ± 0.19 under setting [1] and 4.68 ± 0.095 under setting [2].

Take EDRVKLFGIEIEVTDINDNAPKFQ [PCDHGA10]: the protein stability index came out at 3.35 ± 0.43 under setting [1] and 3.52 ± 0.46 under setting [2].

KEMARKVIEHCSNFKEENMDTSR [ZER1]: the protein stability index is 3.77 ± 0.32 (treatment: DMSO, c terminus: native) and 4.16 ± 0.61 (treatment: MLN4924 1 uM, 8 h, c terminus: native).

With NTQTEELNQQVVSSSEQLQCCQTE [KRT36], the protein stability index under setting [1] worked out at 5.49 ± 0.28 and the protein stability index under setting [2] amounted to 5.51 ± 0.081.

In the case of FPTDAPYPTTLGKDRECQSQSLAL [ZNF8], the protein stability index came out at 4.07 ± 0.15 under setting [1] and 4.05 ± 0.31 under setting [2].

In the case of TVVTGLGPDTQDLEGQSPPQSLPS [PBXIP1], the protein stability index runs as follows: under setting [1], 5.07 ± 0.34; under setting [2], 5.16 ± 0.098.

For the sequence EIEQLLARLTGVNDKMAEYTNSAG [GOSR1], the protein stability index stood at 2.29 ± 0.24 under setting [1] and 2.46 ± 0.45 under setting [2].

In turn, TEVPFSITTDNLQCRERREHPNLV [TEKT4] returned a protein stability index under setting [1] of 4.17 ± 0.15 and a protein stability index under setting [2] of 4.1 ± 0.15.

PVNPELTAGPITGLVYRLNRFRVE [TRIM43]: the protein stability index came to 2.71 ± 0.29 under setting [1] and 2.85 ± 0.33 under setting [2].

Take LLLERAAAGSPRSPGPLPGARGLH [ISL2]: the protein stability index reads like this: under setting [1], 2.8 ± 0.15; under setting [2], 2.97 ± 0.049.

In the case of GPEDLSYQIYDVSGESNSAVSTED [LARP4], the protein stability index was 5.39 ± 0.17 under setting [1] and 5.44 ± 0.13 under setting [2].

In the case of NMCGYHSQDRYEFSSHITRGEHRF [IKZF1], the protein stability index runs as follows: under setting [1], 2.47 ± 0.24; under setting [2], 2.55 ± 0.65.

For NGPLGPSEASIASNLQAMSTQMFQ [SMG5], the protein stability index reads like this: under setting [1], 3.93 ± 0.18; under setting [2], 3.95 ± 0.074.

In the case of CVLRCSVLEIEQSMNRVKNISDAD [FEM1B], the protein stability index under setting [1] came to 2.58 ± 0.37 and the protein stability index under setting [2] stood at 2.83 ± 0.24.

Consider EHACTVRNLARSQSVKMKDKLKID [TAF7L], for which the protein stability index is, setting by setting: under setting [1], 4.75 ± 0.18; under setting [2], 4.81 ± 0.2.

Regarding IYGGELGPMMKLKRHFVAQKYKKQ [ACSBG2], the protein stability index worked out at 2.49 ± 0.2 under setting [1] and 2.85 ± 0.25 under setting [2].

Turning to ITCLTCQGTGYIPTEQVNELVALI [TMEM106C], the protein stability index runs as follows: under setting [1], 2.17 ± 0.3; under setting [2], 2.2 ± 0.27.

As to SERAEVQRLEEQERRHREEKERRK [RSPH3], the protein stability index turned out to be 5.31 ± 0.47 under setting [1] and 5.673 ± 0.05 under setting [2].

LHDNHEQMPTEIEFPESRKPISTK [ZNF649] displayed a protein stability index under setting [1] of 5.1 ± 0.22 and a protein stability index under setting [2] of 5.25 ± 0.31.

For the sequence QIQEFKEAFTLMDQNRDGFIDKED [MYL5], the protein stability index is 5.12 ± 0.26 under setting [1] and 5.19 ± 0.32 under setting [2].

PEVEVQVKRRRTASLSNQECQLYP [SNURF]: the protein stability index runs as follows: under setting [1], 4.77 ± 0.2; under setting [2], 4.84 ± 0.17.

For DVAISANIADIEEKRGFTSHFVFV [NCF4], the protein stability index by setting is: under setting [1], 2.23 ± 0.6; under setting [2], 2.55 ± 0.47.

Consider KKDRPLARRKSELPQDPHTKKALE [PPP2R5C], for which the protein stability index by setting is: under setting [1], 5.11 ± 0.2; under setting [2], 4.96 ± 0.12.

For QPADVFPRLFKEWNITKLSIEYDS [CRY1], the protein stability index was found to be 2.7 ± 0.32 under setting [1] and 2.92 ± 0.3 under setting [2].
